Results from the RNAGym collection of RNA variant scans (doi:10.7554/elife.90254).

B1: LINE1-full (parent)
chain: UACGUAGGUGGUUUUCCCCUGAUAGUGCUAAGGGGGCCUGGAAGUUUGGACUGGGCAGAGCUCAACACAGCGUGGCAAAGUGGCUGUGGCUAGACUGCCUCUCUGGAUUCCUCGUCACUCAGCAGGGCAUCUCUGAGAGAAAUGCC
B2: OR4K15 (parent)
chain: GUUAACGGUCAUAGGCCAUGGAAACUAGGAGCACCAUUUCGCUGCCAGUGAAGAAAUGAACAAAGAAAAUCUGGGCCAGGCAGGCAUCAAAAGAAAUAGUCUUGCGCUCAACCAGAAAGUCUGUAAUCAUUUUAAGGGUA

Variants of: B1
Test: self-cleavage, relative activity (ratio to wild type); higher = more cleavage; in vitro, sequencing; the parent is a self-cleaving ribozyme

| Variant | self-cleavage |
| --- | --- |
| U143A G144A | 1.4 |
| U143A C145U | 1.39 |
| U143C G144A | 2.03 |
| C145U | 1.32 |
| C145G | 0.55 |
| C145A | 0.95 |

Variants of: B2
Test: as above

| Variant | self-cleavage |
| --- | --- |
| U3G A24G | 0.8 |
| U2A U139A | 1.04 |
| U2A U139G | 0.81 |
| U2G A78U | 0.4 |
| A4G A110G | 0.4 |
| U3A A60U | 1.71 |
| U3A A55C | 1.31 |
| A4G G65C | 1.18 |
| U2G A68G | 0.43 |
| U3C A47G | 1.39 |
| U3C A47U | 0.68 |
| G1U A54G | 1.44 |
| U3A U38C | 1 |
| A4G U39C | 1.46 |
| A4G U39G | 1.88 |
| U2A U12C | 1.41 |
| U3G U26C | 0.94 |
| U3A U122C | 1.35 |
| U3C A69G | 1.6 |
| U3A A47C | 1.17 |
| A4C A62G | 0.88 |
| A4C A62U | 0.93 |
| U3A U102C | 1.99 |

| Variant | self-cleavage |
| --- | --- |
| U3C A92G | 1.48 |
| U2C A27G | 0.85 |
| U3C A54C | 0.51 |
| U3C U127C | 1.79 |
| G1C A91G | 0.65 |
| U2G A89G | 0.3 |
| U3C A22U | 1.12 |
| U3C U103C | 1.12 |
| U3C U26A | 1.76 |
| U2A U102C | 1.15 |
| U2C A13U | 1.78 |
| A4G A33U | 0.59 |
| U2A U122C | 0.72 |
| G1C A135G | 1.85 |
| U2C A111G | 0.04 |
| U2C U120A | 1.03 |
| U2C U87C | 0.43 |
| A4G A55G | 1.13 |
| U2A U72C | 0.48 |
| U3C A110U | 1.16 |
| U3C A110G | 0.19 |
| U2A U38C | 1.82 |
| U2A A91G | 0.7 |

| Variant | self-cleavage |
| --- | --- |
| U2A C10U | 0.88 |
| U3A A4G | 1.4 |
| A4G A60U | 1.76 |
| U3C A23G | 1.22 |
| U2A A54G | 0.63 |
| U2C U108C | 0.03 |
| U2A U9C | 1.52 |
| U2C U127C | 0.9 |
| U2C U127A | 2.05 |
| U2C C76U | 0.23 |
| U2A U37C | 1.34 |
| U3A A118G | 0.9 |
| U3C A55G | 1.1 |
| U2A A51G | 0.51 |
| U3C C107G | 0.09 |
| U3C A59G | 1.17 |
| G1U A63G | 0.92 |
| U3C A135G | 0.99 |
| U3C U38C | 0.98 |
| U2C U97C | 0.55 |
| U3C U49C | 0.5 |
| U2C G21A | 0.98 |
| U2G A11U | 1.51 |

| Variant | self-cleavage |
| --- | --- |
| U3G A59G | 0.68 |
| A4G A118G | 1.01 |
| U3C A125G | 0.74 |
| U3C A125U | 0.83 |
| A4G A96G | 1.4 |
| A4G A96C | 0.67 |
| U3C A95G | 1.02 |
| U2C U9A | 0.57 |
| U2C U9C | 0.83 |
| U2A A89G | 1.07 |
| U2C G104C | 0.1 |
| G1U A92G | 1.91 |
| U3C U39C | 1.15 |
| U2C G53A | 1.18 |
| U3A A11G | 1.03 |
| U3A U127C | 0.63 |
| U2G A59G | 0.81 |
| A4G C10U | 0.76 |
| U3G U9A | 0.99 |
| A4C A111G | 0.04 |
| U2A U57C | 0.92 |
| U2C A134G | 1.59 |
| U2C A134U | 0.69 |

| Variant | self-cleavage |
| --- | --- |
| U3A U37C | 0.99 |
| A4G A69U | 1.14 |
| A4G A69C | 0.53 |
| A4G A69G | 1.31 |
| U3C C25U | 1.05 |
| U2C A52G | 1.19 |
| U2C A52C | 1.25 |
| U3C G28U | 2.64 |
| G1A A64G | 2.27 |
| U3G | 1.07 |
| U3A | 1 |
| U3C | 1.1 |
| U3C U19C | 1.88 |
| U2A A134G | 1.65 |
| U2A A116G | 0.75 |
| U2A A116U | 0.18 |
| G1A U102G | 1.23 |
| U2A A117U | 0.49 |
| U2A A117G | 0.59 |
| U2A G44C | 0.79 |
| U3A A68G | 2.27 |
| U2C G73A | 0.22 |
| U2C A126G | 1.22 |

| Variant | self-cleavage |
| --- | --- |
| U2C A59G | 0.91 |
| U2C A59U | 0.98 |
| G1U A69U | 1.22 |
| U3C A134U | 0.67 |
| U3A A78G | 0.14 |
| U3A A36G | 0.85 |
| U3A A36U | 1.61 |
| A4G A24C | 1.03 |
| U3C G74U | 0.15 |
| U2C U43C | 1.57 |
| U2C U43A | 1 |
| U2C A63G | 1.12 |
| U3A U130C | 1.09 |
| U3C A36U | 1.33 |
| U3C A36G | 1.39 |
| G1A A13C | 1.66 |
| G1A A13G | 1.29 |
| U2C A30U | 0.98 |
| U2C A30C | 1.44 |
| U3G A5C | 1.53 |
| U3G U37C | 1.52 |
| U2A A68G | 0.8 |
| U2A A68U | 0.46 |

| Variant | self-cleavage |
| --- | --- |
| U3C A116G | 0.68 |
| U3C U100C | 1.71 |
| U2G A96U | 0.84 |
| U2C U132A | 1.23 |
| U2C A91U | 0.81 |
| U2C A91G | 1.08 |
| U3C A117U | 1.02 |
| U3C U108C | 0.04 |
| U2A A95U | 0.86 |
| U2A A95G | 1.21 |
| A4G G14A | 1.05 |
| A4G U19A | 0.78 |
| A4G U19C | 1.78 |
| G1A A114U | 0.26 |
| G1A A114G | 1.32 |
| A4G A18U | 1.25 |
| U2A A126G | 0.81 |
| U3G A51G | 1.72 |
| U2C U100C | 1.61 |
| U2C U103A | 0.62 |
| A4G A78U | 0.63 |
| U2C U12C | 0.74 |
| U2C U12G | 0.39 |
